Data published in paper PMC3077550 (Nature cell biology, 2011).

Assays:
GST-BIN2 = target: T1, GST-BIN2 (Arabidopsis thaliana, UniProt Q39011 1-380); test: far-Western, overlay or dot blot
T1 sequence (looked up): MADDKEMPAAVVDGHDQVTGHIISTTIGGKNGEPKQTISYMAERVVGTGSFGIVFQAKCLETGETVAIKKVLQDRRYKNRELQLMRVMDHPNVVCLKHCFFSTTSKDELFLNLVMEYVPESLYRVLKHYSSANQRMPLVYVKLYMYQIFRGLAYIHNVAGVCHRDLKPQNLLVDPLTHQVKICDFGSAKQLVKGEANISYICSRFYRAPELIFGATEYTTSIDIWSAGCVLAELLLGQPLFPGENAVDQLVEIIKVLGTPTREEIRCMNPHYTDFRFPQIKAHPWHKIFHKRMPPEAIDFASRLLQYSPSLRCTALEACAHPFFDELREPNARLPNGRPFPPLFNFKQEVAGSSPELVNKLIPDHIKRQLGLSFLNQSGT

GST-PP2AB’α = target: T2, GST-PP2AB’α (Arabidopsis thaliana, UniProt O04375 1-495); test: far-Western, overlay or dot blot
T2 sequence (looked up): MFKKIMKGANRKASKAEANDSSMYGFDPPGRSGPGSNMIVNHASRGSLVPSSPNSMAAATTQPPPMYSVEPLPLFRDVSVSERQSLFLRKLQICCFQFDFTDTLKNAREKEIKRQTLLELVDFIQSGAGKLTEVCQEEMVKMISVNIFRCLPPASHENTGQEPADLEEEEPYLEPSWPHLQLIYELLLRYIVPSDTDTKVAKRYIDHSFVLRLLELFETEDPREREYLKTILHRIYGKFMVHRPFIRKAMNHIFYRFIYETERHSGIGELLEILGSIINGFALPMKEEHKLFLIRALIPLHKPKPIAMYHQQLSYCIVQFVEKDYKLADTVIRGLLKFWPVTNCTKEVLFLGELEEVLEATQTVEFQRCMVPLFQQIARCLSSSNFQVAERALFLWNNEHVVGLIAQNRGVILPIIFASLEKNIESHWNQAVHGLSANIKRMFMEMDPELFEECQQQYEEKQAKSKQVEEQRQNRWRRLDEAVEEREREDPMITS

Row | Binder | binding result (GST-BIN2) | binding result (GST-PP2AB’α)
1 | MBP-BZR1 (unphosphorylated) (natural protein, Arabidopsis thaliana, UniProt Q8S307 1-336, looked up) MTSDGATSTSAAAAAAAAAAARRKPSWRERENNRRRERRRRAVAAKIYTGLRAQGDYNLPKHCDNNEVLKALCVEAGWVVEEDGTTYRKGCKPLPGEIAGTSSRVTPYSSQNQSPLSSAFQSPIPSYQVSPSSSSFPSPSRGEPNNNMSSTFFPFLRNGGIPSSLPSLRISNSCPVTPPVSSPTSKNPKPLPNWESIAKQSMAIAKQSMASFNYPFYAVSAPASPTHRHQFHTPATIPECDESDSSTVDSGHWISFQKFAQQQPFSASMVPTSPTFNLVKPAPQQMSPNTAAFQEIGQSSEFKFENSQVKPWEGERIHDVGMEDLELTLGNGKARG | binds | binds
2 | MBP-bzr1-1D (natural protein, Arabidopsis thaliana, UniProt Q8S307 1-336, looked up) MTSDGATSTSAAAAAAAAAAARRKPSWRERENNRRRERRRRAVAAKIYTGLRAQGDYNLPKHCDNNEVLKALCVEAGWVVEEDGTTYRKGCKPLPGEIAGTSSRVTPYSSQNQSPLSSAFQSPIPSYQVSPSSSSFPSPSRGEPNNNMSSTFFPFLRNGGIPSSLPSLRISNSCPVTPPVSSPTSKNPKPLPNWESIAKQSMAIAKQSMASFNYPFYAVSAPASPTHRHQFHTLATIPECDESDSSTVDSGHWISFQKFAQQQPFSASMVPTSPTFNLVKPAPQQMSPNTAAFQEIGQSSEFKFENSQVKPWEGERIHDVGMEDLELTLGNGKARG | binds | binds
